“Also recorded” adds a separate entry of the source.
Tested on: human PBMCs
Experiment: Human PBMC functional assay, LPS-induced cytokine secretion (ELISA)
Type: cell-based
Description: Human PBMCs. Human buffy coat was purchased from Zen-bio. Buffy coat was overlaid on top of Histopaque-1077 and spun at 700g at 25° C. with no brake and PBMCs were recovered from the interphase. PBMCs were plated in 96-well plates and stimulated with mammalian-derived human resistin (1 μg/mL, LifeSpan Biosciences) or hRetn N-peptide (1 μg/mL). After 24 hours, ultrapure LPS (100 ng/mL, Invivogen) was added and supernatants recovered for ELISA at 24 hours. Where indicated, cells were incubated for 4 hours with STAT3 (5, 15-DPP, 50 μM) or TBK1 (BX-795, 1 μM) inhibitors prior to hRetn treatment. For the hRetn competitive binding assay, 1×10^6 cells were incubated with recombinant hRetn (0.5 μg), washed in PBS then incubated with 0.5 μg LPS-biotin (incubations were 30 minutes on ice). Cells were washed in FACS buffer, treated with Fc block, and stained with BV605-conjugated streptavidin and α-human primary antibodies: CD14 (clone M5E2), CD11 b (clone M1/70) and MD2/TLR4 (clone HTA125) purchased from Affymetrix.
Cytokine Quantification. Sandwich ELISAs were performed using capture and biotinylated antibodies for human resistin (Peprotech), IL-10 and TNFα (BD Biosciences) according to manufacturer's instructions. Detection was performed with streptavidin-peroxidase (Jackson ImmunoResearch) and TMB peroxidase substrate (BD Biosciences), followed by addition of 2N H2SO4. Optical density (OD) was captured at 450 nm. Samples were compared to serial-fold dilution of recombinant protein. For Luminex, inflammatory cytokine kits (Affymetrix) were run according to manufacturer's instructions and quantified on Luminex MagPix (Luminex Corp.). For cytokine bead array, cytokine kits from BD Bioscience were run according to manufacturer's instructions on BD LSRII and analyzed using FCAP Array Software.

[1] = human PBMC, pre-treatment then LPS 100 ng/mL

B1: hRetn: human resistin protein (hRetn) having an amino acid sequence of SEQ ID NO: 1; recombinant, E. coli-derived or 293T cell-derived (protein, listed as Homo sapiens)
chain: MKALCLLLLPVLGLLVSSKTLCSMEEAINERIQEVAGSLIFRAISSIGLECQSVTSRGDLATCPRGFAVTGCTCGSACGSWDVRAETTCHCQCAGMDWTGARCCRVQP
Human PBMC, 5,15-DPP 50 μM 4 hours prior to hRetn
  hRetn functional effect on TNFα and IL-10 when STAT3 signaling was inhibited: also abrogated
Human PBMC, BX-795 1 μM 4 hours prior to hRetn
  hRetn functional effect on TNFα and IL-10 in the presence of TBK1 inhibitor: abrogated
[1]
  IL-10 expression after LPS: increased IL-10 expression
  LPS-induced TNFα secretion: significantly more TNFα than cells treated with hRetn and LPS; also recorded: significantly reduced LPS-induced TNFα secretion
